Earlier results in paper PMC6162179.

Key:
[1] = biological target: Thioredoxin (Escherichia coli) [thioredoxin: P0AA25]
[2] = biological target: gp5 DNA polymerase (Escherichia phage T7) (UniProt P00581)
Chain of gp5 DNA polymerase (Escherichia phage T7) (P00581 whole entry): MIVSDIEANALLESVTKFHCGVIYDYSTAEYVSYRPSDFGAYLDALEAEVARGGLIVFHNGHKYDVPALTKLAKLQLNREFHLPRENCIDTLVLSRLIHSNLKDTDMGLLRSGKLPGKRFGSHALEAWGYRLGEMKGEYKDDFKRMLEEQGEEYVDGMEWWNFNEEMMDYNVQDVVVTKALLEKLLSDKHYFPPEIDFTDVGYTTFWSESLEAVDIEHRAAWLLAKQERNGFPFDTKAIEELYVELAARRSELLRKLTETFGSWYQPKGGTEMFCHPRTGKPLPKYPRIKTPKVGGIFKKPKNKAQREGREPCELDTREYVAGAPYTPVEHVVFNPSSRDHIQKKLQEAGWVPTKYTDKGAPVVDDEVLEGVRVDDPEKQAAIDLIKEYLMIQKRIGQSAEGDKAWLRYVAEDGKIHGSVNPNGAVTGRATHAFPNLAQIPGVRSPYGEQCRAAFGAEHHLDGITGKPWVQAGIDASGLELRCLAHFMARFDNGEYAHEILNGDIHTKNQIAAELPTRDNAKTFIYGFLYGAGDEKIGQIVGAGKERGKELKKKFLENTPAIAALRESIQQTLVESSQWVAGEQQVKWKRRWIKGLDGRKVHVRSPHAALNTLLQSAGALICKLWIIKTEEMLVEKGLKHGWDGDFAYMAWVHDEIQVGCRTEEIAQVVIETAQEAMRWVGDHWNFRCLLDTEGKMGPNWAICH

Chain of gp2.5 (P03696 whole entry): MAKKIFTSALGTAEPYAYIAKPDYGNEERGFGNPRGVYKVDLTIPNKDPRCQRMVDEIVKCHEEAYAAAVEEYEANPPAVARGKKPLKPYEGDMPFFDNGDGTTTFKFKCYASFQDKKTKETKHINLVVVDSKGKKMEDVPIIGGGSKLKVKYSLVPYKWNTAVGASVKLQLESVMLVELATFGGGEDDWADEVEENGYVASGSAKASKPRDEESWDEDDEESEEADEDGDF
Chain of Thioredoxin (Escherichia coli) [thioredoxin: P0AA25] (P0AA25 2-109): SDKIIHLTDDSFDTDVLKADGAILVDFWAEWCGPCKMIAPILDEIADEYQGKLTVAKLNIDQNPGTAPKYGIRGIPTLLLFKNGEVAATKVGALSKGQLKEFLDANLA

gp2.5 (from UniProt P03696)
Kd [1]: 500 µM
Kd [2]: 1 µM
